{"source": "IntAct's records for PubMed 25910212", "parents": {"B1": {"name": "Acetylcholine receptor subunit gamma (Homo sapiens), P07510-2 (parent)", "chain": "MHGGQGPLLLLLLLAVCLGAQGRNQEERLLADLMQNYDPNLRPAERDSDVVNVSLKLTLTNLISLNEREEALTTNVWIEMQWCDYRLRWDPRDYEGLWVLRVPSTMVWRPDIVLENKSQTYSTNEIDLQLSQEDGQTIEWIFIDPEAFTENGEWAIQHRPAKMLLDPAAPAQEAGHQKVVFYLLIQRKPLFYVINIIAPCVLISSVAILIHFLPAKAGGQKCTVAINVLLAQTVFLFLVAKKVPETSQAVPLISKYLTFLLVVTILIVVNAVVVLNVSLRSPHTHSMARGVRKVFLRLLPQLLRMHVRPLAPAAVQDTQSRLQNGSSGWSITTGEEVALCLPRSELLFQQWQRQGLVAAALEKLEKGPELGLSQFCGSLKQAAPAIQACVEACNLIACARHQQSHFDNGNEEWFLVGRVLDRVCFLAMLSLFICGTAGIFLMAHYNRVPALPFPGDPRPYLPSPD"}, "B2": {"name": "Phospholamban (Homo sapiens), P26678 (parent)", "chain": "MEKVQYLTRSAIRRASTIEMPQQARQKLQNLFINFCLILICLLLICIIVMLL"}, "B3": {"name": "Multifunctional procollagen lysine hydroxylase and glycosyltransferase LH3 (Homo sapiens), O60568 (parent)", "chain": "MTSSGPGPRFLLLLPLLLPPAASASDRPRGRDPVNPEKLLVITVATAETEGYLRFLRSAEFFNYTVRTLGLGEEWRGGDVARTVGGGQKVRWLKKEMEKYADREDMIIMFVDSYDVILAGSPTELLKKFVQSGSRLLFSAESFCWPEWGLAEQYPEVGTGKRFLNSGGFIGFATTIHQIVRQWKYKDDDDDQLFYTRLYLDPGLREKLSLNLDHKSRIFQNLNGALDEVVLKFDRNRVRIRNVAYDTLPIVVHGNGPTKLQLNYLGNYVPNGWTPEGGCGFCNQDRRTLPGGQPPPRVFLAVFVEQPTPFLPRFLQRLLLLDYPPDRVTLFLHNNEVFHEPHIADSWPQLQDHFSAVKLVGPEEALSPGEARDMAMDLCRQDPECEFYFSLDADAVLTNLQTLRILIEENRKVIAPMLSRHGKLWSNFWGALSPDEYYARSEDYVELVQRKRVGVWNVPYISQAYVIRGDTLRMELPQRDVFSGSDTDPDMAFCKSFRDKGIFLHLSNQHEFGRLLATSRYDTEHLHPDLWQIFDNPVDWKEQYIHENYSRALEGEGIVEQPCPDVYWFPLLSEQMCDELVAEMEHYGQWSGGRHEDSRLAGGYENVPTVDIHMKQVGYEDQWLQLLRTYVGPMTESLFPGYHTKARAVMNFVVRYRPDEQPSLRPHHDSSTFTLNVALNHKGLDYEGGGCRFLRYDCVISSPRKGWALLHPGRLTHYHEGLPTTWGTRYIMVSFVDP", "partner": "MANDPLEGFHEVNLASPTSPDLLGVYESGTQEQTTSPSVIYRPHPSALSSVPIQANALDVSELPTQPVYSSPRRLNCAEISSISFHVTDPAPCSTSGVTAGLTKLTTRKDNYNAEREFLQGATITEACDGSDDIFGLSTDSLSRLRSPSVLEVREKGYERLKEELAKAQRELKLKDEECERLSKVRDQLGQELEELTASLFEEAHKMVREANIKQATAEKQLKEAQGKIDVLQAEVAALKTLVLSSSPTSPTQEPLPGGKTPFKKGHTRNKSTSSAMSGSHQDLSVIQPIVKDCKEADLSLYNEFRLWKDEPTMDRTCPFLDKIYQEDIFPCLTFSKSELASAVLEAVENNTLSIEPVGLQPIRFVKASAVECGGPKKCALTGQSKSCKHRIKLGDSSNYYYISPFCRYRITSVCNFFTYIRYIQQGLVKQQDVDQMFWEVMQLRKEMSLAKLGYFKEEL"}, "B4": {"name": "DNA mismatch repair protein Mlh1 (Homo sapiens), P40692 (parent)", "chain": "MSFVAGVIRRLDETVVNRIAAGEVIQRPANAIKEMIENCLDAKSTSIQVIVKEGGLKLIQIQDNGTGIRKEDLDIVCERFTTSKLQSFEDLASISTYGFRGEALASISHVAHVTITTKTADGKCAYRASYSDGKLKAPPKPCAGNQGTQITVEDLFYNIATRRKALKNPSEEYGKILEVVGRYSVHNAGISFSVKKQGETVADVRTLPNASTVDNIRSIFGNAVSRELIEIGCEDKTLAFKMNGYISNANYSVKKCIFLLFINHRLVESTSLRKAIETVYAAYLPKNTHPFLYLSLEISPQNVDVNVHPTKHEVHFLHEESILERVQQHIESKLLGSNSSRMYFTQTLLPGLAGPSGEMVKSTTSLTSSSTSGSSDKVYAHQMVRTDSREQKLDAFLQPLSKPLSSQPQAIVTEDKTDISSGRARQQDEEMLELPAPAEVAAKNQSLEGDTTKGTSEMSEKRGPTSSNPRKRHREDSDVEMVEDDSRKEMTAACTPRRRIINLTSVLSLQEEINEQGHEVLREMLHNHSFVGCVNPQWALAQHQTKLYLLNTTKLSEELFYQILIYDFANFGVLRLSEPAPLFDLAMLALDSPESGWTEEDGPKEGLAEYIVEFLKKKAEMLADYFSLEIDEEGNLIGLPLLIDNYVPPLEGLPIFILRLATEVNWDEEKECFESLSKECAMFYSIRKQYISEESTLSGQQSEVPGSIPNSWKWTVEHIVYKALRSHILPPKHFTEDGNILQLANLPDLYKVFERC"}}, "data": [{"variants_of": "B1", "conditions": "with mdfi_human MDFI", "values": [{"variant": "R187C", "effect of a mutation on the interaction": "disrupting interaction strength"}]}, {"variants_of": "B1", "conditions": "with nt2na_human NOTCH2NLA", "values": [{"variant": "R187C", "effect of a mutation on the interaction": "disrupting interaction strength"}]}, {"variants_of": "B1", "conditions": "with k1h1_human KRT31, Q15323", "values": [{"variant": "R187C", "effect of a mutation on the interaction": "disrupting interaction strength"}]}, {"variants_of": "B1", "conditions": "with meox2_human MEOX2, P50222", "values": [{"variant": "R187C", "effect of a mutation on the interaction": "disrupting interaction strength"}]}, {"variants_of": "B2", "conditions": "with BCL2L13, Q9BXK5", "values": [{"variant": "R9C", "effect of a mutation on the interaction": "with no effect"}]}, {"variants_of": "B2", "conditions": "with eda_human EDA", "values": [{"variant": "R9C", "effect of a mutation on the interaction": "with no effect"}]}, {"variants_of": "B3", "conditions": "with RAB3IP", "values": [{"variant": "N223S", "effect of a mutation on the interaction": "with no effect"}]}, {"variants_of": "B4", "conditions": "with AP2B1, P63010-2", "values": [{"variant": "R472I", "effect of a mutation on the interaction": "with no effect"}, {"variant": "G244D", "effect of a mutation on the interaction": "with no effect"}]}, {"variants_of": "B4", "conditions": "with ccd33_human CCDC33, Q8N5R6", "values": [{"variant": "R472I", "effect of a mutation on the interaction": "with no effect"}, {"variant": "G244D", "effect of a mutation on the interaction": "disrupting interaction strength"}]}, {"variants_of": "B4", "conditions": "with taso2_human TASOR2, Q5VWN6", "values": [{"variant": "R472I", "effect of a mutation on the interaction": "with no effect"}, {"variant": "G244D", "effect of a mutation on the interaction": "disrupting interaction strength"}]}]}
